Three molecules from patent US20190077860A1 (EISAI R AND D MANAGEMENT, published 2019) can be followed below.

Experiment [1] has as its target T1, human EphA4 extracellular region-SEAP-His protein (human, UniProt P54764 20-547).
T1 construct: also called hEphA4-SEAP-His
As to the kind of experiment: SPR, Ab captured. In outline:
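Affinity (KD=kd/ka) obtained by fitting SPR curves to a 1:1 model. Analyte was human EphA4 extracellular region-SEAP-His, injected sequentially from 0.6 to 50 nM in HBS-EP (120 s on, 900 s off), onto humanized antibodies on protein A or antibody A on anti-mouse IgG1 surfaces, capture level about 30–60 RU.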

For experiment [2], the target named is T2, human EphB1 extracellular region-SEAP-His protein (human, UniProt P54762 18-540).
T2 construct: extracellular domain; also called hEphB1-SEAP-His
T2 sequence (looked up): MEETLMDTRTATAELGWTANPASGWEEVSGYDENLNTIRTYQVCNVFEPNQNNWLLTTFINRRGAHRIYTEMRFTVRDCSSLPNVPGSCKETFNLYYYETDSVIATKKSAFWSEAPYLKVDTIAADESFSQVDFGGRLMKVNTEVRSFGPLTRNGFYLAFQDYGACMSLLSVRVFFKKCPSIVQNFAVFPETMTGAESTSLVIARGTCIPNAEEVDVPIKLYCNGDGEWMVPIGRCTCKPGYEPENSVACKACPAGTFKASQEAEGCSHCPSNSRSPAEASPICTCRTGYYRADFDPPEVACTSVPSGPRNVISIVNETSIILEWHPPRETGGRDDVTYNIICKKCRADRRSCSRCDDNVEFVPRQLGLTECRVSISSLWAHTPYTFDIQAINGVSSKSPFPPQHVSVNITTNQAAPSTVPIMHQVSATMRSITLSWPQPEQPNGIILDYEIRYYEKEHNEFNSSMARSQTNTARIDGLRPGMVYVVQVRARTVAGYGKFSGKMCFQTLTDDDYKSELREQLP
The experiment is described as follows: ELISA.

Experiment [3] concerns the target T1, human EphA4 extracellular …. As to the kind of experiment: competition ELISA, competitor human Ephrin A5-Fc. The method in brief:
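Ligand binding to captured receptor measured as A450 after HRP-streptavidin/TMBZ development and acid stop. Receptor fusion (10 nM final) was immobilised via anti-alkaline phosphatase antibody; biotinylated Ephrin A5-Fc (0.7 nM final) added together with antibody titrations from 0 to 3000 nM, 1 h, room temperature.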

T1 sequence (P54764 20-547): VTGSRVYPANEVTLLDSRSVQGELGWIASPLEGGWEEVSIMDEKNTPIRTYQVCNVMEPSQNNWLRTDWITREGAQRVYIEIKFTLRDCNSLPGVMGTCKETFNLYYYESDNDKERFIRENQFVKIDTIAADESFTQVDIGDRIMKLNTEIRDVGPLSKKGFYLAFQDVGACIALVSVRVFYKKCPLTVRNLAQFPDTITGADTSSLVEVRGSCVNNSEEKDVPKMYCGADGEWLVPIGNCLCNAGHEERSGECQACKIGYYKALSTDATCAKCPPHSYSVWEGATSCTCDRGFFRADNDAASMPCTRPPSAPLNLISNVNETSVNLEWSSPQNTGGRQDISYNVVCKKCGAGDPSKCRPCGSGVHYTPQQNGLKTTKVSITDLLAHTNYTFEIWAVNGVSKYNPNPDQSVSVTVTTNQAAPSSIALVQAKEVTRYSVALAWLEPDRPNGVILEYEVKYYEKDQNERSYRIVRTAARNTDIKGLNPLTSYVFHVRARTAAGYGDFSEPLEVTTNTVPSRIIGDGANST

B1: humanized antibody No. 151 (antibody, human IgG2)
heavy: QIQLVQSGSELKKPGASVKVSCKASGYTFTDYSMHWVRQAPGQGLKWMGWINTETGEPTYAQGFTGRFVFSLDTSVSTAYLQISSLKAEDTAVYYCARIPLYYYGSRYWYFDVWGQGTTVTVSSASTKGPSVFPLAPSSRSTSESTAALGCLVKDYFPEPVTVSWNSGALTSGVHTFPAVLQSSGLYSLSSVVTVPSSNFGTQTYTCNVDHKPSNTKVDKTVERKSCVECPPCPAPPAAAPSVFLFPPKPKDTLMISRTPEVTCVVVDVSHEDPEVQFNWYVDGVEVHNAKTKPREEQFNSTFRVVSVLTVVHQDWLNGKEYKCKVSNKGLPAPIEKTISKTKGQPREPQVYTLPPSREEMTKNQVSLTCLVKGFYPSDIAVEWESNGQPENNYKTTPPMLDSDGSFFLYSKLTVDKSRWQQGNVFSCSVMHEALHNHYTQKSLSLSPG
light: DIQMTQSPSSLSASVGDRVTITCRASENIYRNLAWYQQKPGKAPKLLLYAATNLADGVPSRFSGSGSGTDYTLTISSLQSEDFATYYCQHFWGTPWTFGQGTKVEIKRTVAAPSVFIFPPSDEQLKSGTASVVCLLNNFYPREAKVQWKVDNALQSGNSQESVTEQDSKDSTYSLSSTLTLSKADYEKHKVYACEVTHQGLSSPVTKSFNRGEC
notes: human Ig kappa; also called L1-5/HA4
In experiment [1], B1 showed a Kd of 1.7 nM, a koff of 0.00053 s⁻¹ and a kon of 320000 M⁻¹ s⁻¹. Further, the “A450 as % of hEphA4-SEAP-His” value in experiment [2] is 6.8%. In addition, the IC50 in experiment [3] is 2 nM.

B2: humanized antibody No. 152 (antibody, human IgG2)
heavy: QVQLVQSGSELKKPGASVKVSCKASGYTFTDYSMHWVRQAPGQGLEWMGWINTETGEPTYAQGFTGRFVFSLDTSVSTAYLQISSLKAEDTAVYYCARIPLYYYGSRYWYFDVWGQGTTVTVSSASTKGPSVFPLAPSSRSTSESTAALGCLVKDYFPEPVTVSWNSGALTSGVHTFPAVLQSSGLYSLSSVVTVPSSNFGTQTYTCNVDHKPSNTKVDKTVERKSCVECPPCPAPPAAAPSVFLFPPKPKDTLMISRTPEVTCVVVDVSHEDPEVQFNWYVDGVEVHNAKTKPREEQFNSTFRVVSVLTVVHQDWLNGKEYKCKVSNKGLPAPIEKTISKTKGQPREPQVYTLPPSREEMTKNQVSLTCLVKGFYPSDIAVEWESNGQPENNYKTTPPMLDSDGSFFLYSKLTVDKSRWQQGNVFSCSVMHEALHNHYTQKSLSLSPG
light: DIQMTQSPSSLSASVGDRVTITCRASENIYRNLAWYQQKPGKAPKLLLYAATNLADGVPSRFSGSGSGTDYTLTISSLQSEDFATYYCQHFWGTPWTFGQGTKVEIKRTVAAPSVFIFPPSDEQLKSGTASVVCLLNNFYPREAKVQWKVDNALQSGNSQESVTEQDSKDSTYSLSSTLTLSKADYEKHKVYACEVTHQGLSSPVTKSFNRGEC
notes: human Ig kappa; also called L1-5/HA1
In the case of B2, in experiment [1], binding was characterised by a dissociation constant (Kd) of 2 nM, the koff was 0.00082 s⁻¹ and the kon worked out at 400000 M⁻¹ s⁻¹. In experiment [2], the “A450 as % of hEphA4-SEAP-His” value stood at 5.9%. Further, the IC50 in experiment [3] is 2 nM.

B3: humanized antibody No. 153 (antibody, human IgG2)
heavy: QVQLVQSGSELKKPGASVKVSCKASGYTFTDYSMHWVRQAPGQGLKWMGWINTETGEPTYAQGFTGRFVFSLDTSVSTAYLQISSLKAEDTAVYYCARIPLYYYGSRYWYFDVWGQGTTVTVSSASTKGPSVFPLAPSSRSTSESTAALGCLVKDYFPEPVTVSWNSGALTSGVHTFPAVLQSSGLYSLSSVVTVPSSNFGTQTYTCNVDHKPSNTKVDKTVERKSCVECPPCPAPPAAAPSVFLFPPKPKDTLMISRTPEVTCVVVDVSHEDPEVQFNWYVDGVEVHNAKTKPREEQFNSTFRVVSVLTVVHQDWLNGKEYKCKVSNKGLPAPIEKTISKTKGQPREPQVYTLPPSREEMTKNQVSLTCLVKGFYPSDIAVEWESNGQPENNYKTTPPMLDSDGSFFLYSKLTVDKSRWQQGNVFSCSVMHEALHNHYTQKSLSLSPG
light: DIQMTQSPSSLSASVGDRVTITCRASENIYRNLAWYQQKPGKAPKLLLYAATNLADGVPSRFSGSGSGTDYTLTISSLQSEDFATYYCQHFWGTPWTFGQGTKVEIKRTVAAPSVFIFPPSDEQLKSGTASVVCLLNNFYPREAKVQWKVDNALQSGNSQESVTEQDSKDSTYSLSSTLTLSKADYEKHKVYACEVTHQGLSSPVTKSFNRGEC
notes: human Ig kappa; also called L1-5/HA2
In experiment [1], B3 yielded a Kd of 2.1 nM, a koff of 0.0006 s⁻¹ and a kon of 290000 M⁻¹ s⁻¹. Also, the “A450 as % of hEphA4-SEAP-His” value in experiment [2] worked out at 6%. The molecule also returned a half-inhibitory concentration (IC50) in experiment [3] of 2.3 nM.
